Assay results published in doi:10.1101/2025.06.24.661325, “Structural and functional analysis of the Mycobacterium tuberculosis MmpS5L5 efflux pump presages a pathway to increased bedaquiline resistance” (bioRxiv, 2025).

Experiments:
[1] = target: T1, M. tuberculosis MmpL5 Δ494-688 with C-terminal GFP-FLAG tag (M. tuberculosis, UniProt P9WJV1 1-964, Δ494-688); experiment: co-purification (anti-FLAG affinity, then SEC); details: partners not purified
T1 construct: also called MmpL5ΔCC; MmpL5 ΔCC

[2] = target: T1, M. tuberculosis MmpL5 Δ494-688 with …; experiment: cryo-EM structure; details: both partners purified

B1: M. tuberculosis MmpS5 (natural protein)
chain: MIGTLKRAWIPLLILVVVAIAGFTVQRIRTFFGSEGILVTPKVFADDPEPFDPKVVEYEVSGSGSYVNINYLDLDAKPQRIDGAALPWSLTLKTTAPSAAPNILAQGDGTSITCRITVDGEVKDERTATGVDALTYCFVKSA
Does B1 bind [1]?
Result: binds

B2: M. smegmatis acyl carrier protein AcpM (MSMEG_4326) (natural protein)
chain: MAATQEEIIAGLAEIIEEVTGIEPSEVTPEKSFVDDLDIDSLSMVEIAVQTEDKYGVKIPDEDLAGLRTVGDVVAYIQKLEEENPEAAAALREKFAADQ
Does B2 bind [2]?
Result: binds
